Results from publication PMC6876245.
Where two headings read alike, the source gives them in different places.

Key:
POT1-N [1] = target: T1, POT1-N (human, UniProt Q9NUX5 1-340); assay: hydroxyl radical footprinting MS
T1 sequence: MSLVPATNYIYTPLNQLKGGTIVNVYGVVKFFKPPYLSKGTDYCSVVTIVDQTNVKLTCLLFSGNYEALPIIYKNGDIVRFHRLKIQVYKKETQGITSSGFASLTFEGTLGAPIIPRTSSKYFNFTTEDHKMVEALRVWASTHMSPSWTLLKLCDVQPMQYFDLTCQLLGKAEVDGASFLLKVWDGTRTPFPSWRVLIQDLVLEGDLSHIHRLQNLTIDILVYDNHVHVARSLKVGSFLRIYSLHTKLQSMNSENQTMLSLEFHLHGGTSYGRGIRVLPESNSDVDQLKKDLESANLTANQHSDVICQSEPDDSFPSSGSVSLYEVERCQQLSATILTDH

POT1;TPP1 [2] = target: T2, POT1;TPP1 (human;human, UniProt Q9NUX5;Q96AP0 1-634;3-248, |); assay: EMSA
T2 sequence (Q96AP0 3-248, one chain of several): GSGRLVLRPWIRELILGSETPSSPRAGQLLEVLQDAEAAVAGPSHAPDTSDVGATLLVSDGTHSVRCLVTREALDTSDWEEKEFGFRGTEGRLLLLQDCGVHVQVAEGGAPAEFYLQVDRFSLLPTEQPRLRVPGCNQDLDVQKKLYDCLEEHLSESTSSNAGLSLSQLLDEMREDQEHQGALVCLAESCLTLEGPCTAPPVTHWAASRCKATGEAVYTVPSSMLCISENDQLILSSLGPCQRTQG

POT1 H266L;TPP1 [3] = target: T3, POT1 H266L;TPP1 (human;human, UniProt Q9NUX5;Q96AP0 1-634;3-248, H266L|); assay: stopped-flow CD
Target sequence in this assay (Q96AP0 3-248, stated change not applied, one chain of several): as the sequence (Q96AP0 3-248, one chain of several) above

POT1 Y36N;TPP1 [4] = target: T4, POT1 Y36N;TPP1 (human;human, UniProt Q9NUX5;Q96AP0 1-634;3-248, Y36N|); assay: EMSA
Target sequence in this assay (Q96AP0 3-248, stated change not applied, one chain of several): as the sequence (Q96AP0 3-248, one chain of several) above

POT1 H266L;TPP1 [5] = target: T3, POT1 H266L;TPP1; assay: EMSA
Target sequence in this assay (Q9NUX5 whole entry H266L, chain 1 of 2): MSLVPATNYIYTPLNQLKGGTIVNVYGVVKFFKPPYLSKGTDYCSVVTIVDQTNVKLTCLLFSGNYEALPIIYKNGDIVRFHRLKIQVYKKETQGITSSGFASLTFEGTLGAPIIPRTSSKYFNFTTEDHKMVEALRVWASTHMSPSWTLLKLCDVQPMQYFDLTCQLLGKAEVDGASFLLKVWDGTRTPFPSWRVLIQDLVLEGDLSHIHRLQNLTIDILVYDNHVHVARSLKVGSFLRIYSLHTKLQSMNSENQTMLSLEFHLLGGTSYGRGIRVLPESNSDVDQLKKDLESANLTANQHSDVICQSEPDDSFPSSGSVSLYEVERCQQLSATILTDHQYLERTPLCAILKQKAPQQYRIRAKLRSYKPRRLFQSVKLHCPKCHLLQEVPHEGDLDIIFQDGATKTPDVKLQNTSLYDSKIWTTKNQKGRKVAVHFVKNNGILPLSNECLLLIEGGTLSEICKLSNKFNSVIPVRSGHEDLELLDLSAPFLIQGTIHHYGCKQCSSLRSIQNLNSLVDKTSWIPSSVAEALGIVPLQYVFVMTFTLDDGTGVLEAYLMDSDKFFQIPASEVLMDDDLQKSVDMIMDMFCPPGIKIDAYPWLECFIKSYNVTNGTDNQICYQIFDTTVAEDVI
Target sequence in this assay (Q96AP0 3-248, chain 2 of 2): as the sequence (Q96AP0 3-248, one chain of several) above

POT1;TPP1 [6] = target: T2, POT1;TPP1; assay: EMSA; remark: listed apart in the source
POT1 Y36N;TPP1 [7] = target: T4, POT1 Y36N;TPP1; assay: EMSA; remark: listed apart in the source
Target sequence in this assay (Q9NUX5 whole entry Y36N, chain 1 of 2): as the sequence (Q9NUX5 whole entry H266L, chain 1 of 2) above, with Y36N, L266H counted along it
Target sequence in this assay (Q96AP0 3-248, chain 2 of 2): as the sequence (Q96AP0 3-248, one chain of several) above

POT1-N [8] = target: T1, POT1-N; assay: hydroxyl radical footprinting MS; remark: listed apart in the source

B1: hT72 (ssDNA)
DNA: GGTTAGGGTTAGGGTTAGGGTTAGGGTTAGGGTTAGGGTTAGGGTTAGGGTTAGGGTTAGGGTTAGGGTTAG
POT1-N [1]
  binding result: binds
POT1;TPP1 [2]
  apparent K (half saturation): 6.9 ± 0.6 nM
POT1 H266L;TPP1 [3]
  binding result: binds
POT1 Y36N;TPP1 [4]
  apparent K (half saturation): 4.5 ± 0.4 nM

## GGTTAGGGTTAG (ssDNA) [hT12]
POT1 H266L;TPP1 [5]
  Kd: 29.1 ± 9.3 nM
POT1;TPP1 [6]
  Kd: 1 ± 0.5 nM
POT1 Y36N;TPP1 [7]
  Kd: 2.2 ± 1.1 nM
POT1-N [8]
  binding result: binds
